Test results published in patent publication US20200317768A1 (published 2020).
Substitutions are numbered along the chain they refer to.

T1: cynomolgus monkey FcγRIIa1 extracellular domain with C-terminal His-tag (cynomolgus monkey)
T1 construct: also called cyno FcgRIIa1; cynoFcγRIIa1
T1 chain: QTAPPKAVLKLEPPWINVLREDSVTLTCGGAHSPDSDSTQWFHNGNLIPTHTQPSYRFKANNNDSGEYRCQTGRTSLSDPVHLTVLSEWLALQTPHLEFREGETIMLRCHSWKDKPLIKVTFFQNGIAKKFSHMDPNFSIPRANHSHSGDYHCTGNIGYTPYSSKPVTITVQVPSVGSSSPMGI

T2: cynomolgus monkey FcγRIIa2 extracellular domain with C-terminal His-tag (cynomolgus monkey)
T2 construct: also called cyno FcgRIIa2; cynoFcγRIIa2
T2 chain: T1 chain with P95T, T121A, I127K, A128S, K130N, D135N, R142Q

T3: cynomolgus monkey FcγRIIb extracellular domain with C-terminal His-tag (cynomolgus monkey)
T3 construct: also called cyno FcgRIIb; cynoFcγRIIb
T3 chain: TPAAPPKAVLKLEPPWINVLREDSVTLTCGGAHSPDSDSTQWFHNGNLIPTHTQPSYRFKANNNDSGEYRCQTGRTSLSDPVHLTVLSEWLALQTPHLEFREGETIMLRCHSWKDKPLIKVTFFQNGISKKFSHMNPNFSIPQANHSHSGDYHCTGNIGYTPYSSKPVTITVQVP

T4: cynomolgus monkey FcγRIIIaS extracellular domain with C-terminal His-tag (cynomolgus monkey, UniProt Q8SPW2 21-206 at identity 1.00))
T4 construct: also called cyno FcgRIIIaS; cynoFcγRIIIaS
T4 chain: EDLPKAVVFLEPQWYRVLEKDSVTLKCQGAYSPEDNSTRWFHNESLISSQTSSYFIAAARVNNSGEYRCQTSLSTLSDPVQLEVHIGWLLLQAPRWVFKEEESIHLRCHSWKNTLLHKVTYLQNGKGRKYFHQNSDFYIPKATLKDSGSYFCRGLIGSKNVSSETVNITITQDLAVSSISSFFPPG

T5: human FcγRIIaH extracellular domain with C-terminal His-tag (human, UniProt P12318 34-217)
T5 construct: also called human FcgRIIaH; FcγRIIa (type H)
T5 sequence: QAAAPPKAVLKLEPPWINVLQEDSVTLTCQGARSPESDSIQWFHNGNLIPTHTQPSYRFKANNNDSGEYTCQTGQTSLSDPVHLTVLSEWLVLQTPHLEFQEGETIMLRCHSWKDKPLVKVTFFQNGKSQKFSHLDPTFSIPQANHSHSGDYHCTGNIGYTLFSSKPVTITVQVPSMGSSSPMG

T6: human FcγRIIaR extracellular domain with C-terminal His-tag (human, UniProt P12318 34-217)
T6 construct: also called human FcgRIIaR; FcγRIIa (type R)
T6 chain: T5 sequence with H134R

T7: human FcγRIIb extracellular domain with C-terminal His-tag (human, UniProt P31994 43-217)
T7 construct: also called human FcgRIIb
T7 sequence: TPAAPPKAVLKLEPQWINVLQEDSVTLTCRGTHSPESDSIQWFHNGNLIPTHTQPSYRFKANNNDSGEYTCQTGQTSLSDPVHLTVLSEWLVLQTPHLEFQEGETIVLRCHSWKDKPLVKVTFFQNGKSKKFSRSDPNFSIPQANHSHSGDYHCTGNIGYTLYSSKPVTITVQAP

B1: M103205H795-MY209/M103202L889-SK1 (antibody, human IgG1, kappa)
heavy: QVTLKESGPVLVKPTETLTLTCTVSGIDLSHDDISWVRQAPGKGLEWVGIISYAGSTYYASWAKGRLTISKDTSKNQVVLTMTNMDPVDTATYYCARGVPAYSHGGDLWGQGTLVTVSSASTKGPSVFPLAPSSKSTSGGTAALGCLVKDYFPEPVTVSWNSGALTSGVHTFPAVLQSSGLYSLSSVVTVPSSSLGTQTYICNVNHKPSNTKVDKKVEPKSCDKTHTCPPCPAPELLNGPSVFLFPPKPKDTLMISRTPEVTCVVVDVSDEDPEVKFNWYVDGVEVHNAKTKPREELYNSTYRVVSVLTVLHQDWLNGKEYKCKVSNTALPKPIEKTISKAKGQPREPQVYTLPPSREEMTKNQVSLTCLVKGFYPSDIAVEWESNGQPENNYKTTPPVLDSDGSFFLYSKLTVDKSRWQQGNVFSCSVMHEALHNHYTQKSLSLSP
light: DIVMTQSPATLSLSPGERATLSCTSSQSVYHANWLSWFQQKPGQPPKLLIYWASTLAYGVPSRFSGSGSGTDFTLTISSLQPEDAATYYCAGGYGGGRYAFGQGTKVEIKRTVAAPSVFIFPPSDEQLKSGTASVVCLLNNFYPREAKVQWKVDNALQSGNSQESVTEQDSKDSTYSLSSTLTLSKADYEKHKVYACEVTHQGLSSPVTKSFNRGEC
notes: Substitutions introduced into M103205H795-SG1, expressed with M103202L889-SK1 as light chain; EU numbering
B2: M103205H795-MY283/M103202L889-SK1 (antibody, human IgG1, kappa)
heavy: B1 heavy with N238T, T328K
light: B1 light
notes: as for B1
B3: M103205H795-MY339/M103202L889-SK1 (antibody, human IgG1, kappa)
heavy: B1 heavy with N238L, L297Q, P398K
light: B1 light
notes: as for B1
B4: M103205H795-MY340/M103202L889-SK1 (antibody, human IgG1, kappa)
heavy: B1 heavy with N238L, T328K, P398K
light: B1 light
notes: as for B1
B5: M103205H795-MY341/M103202L889-SK1 (antibody, human IgG1, kappa)
heavy: B1 heavy with N238L, P398K
light: B1 light
notes: as for B1
B6: M103205H795-MY342/M103202L889-SK1 (antibody, human IgG1, kappa)
heavy: B1 heavy with N238L, T328K, P398M
light: B1 light
notes: as for B1
B7: M103205H795-MY380/M103202L889-SK1 (antibody, human IgG1, kappa)
heavy: B1 heavy with D270E, L297Q, T328K, P398K
light: B1 light
notes: as for B1
B8: M103205H795-MY386/M103202L889-SK1 (antibody, human IgG1, kappa)
heavy: B1 heavy with N238L
light: B1 light
notes: as for B1
B9: M103205H795-MY387/M103202L889-SK1 (antibody, human IgG1, kappa)
heavy: B1 heavy with N238T, S241V, L297Q, T328K
light: B1 light
notes: as for B1
B10: M103205H795-MY388/M103202L889-SK1 (antibody, human IgG1, kappa)
heavy: B1 heavy with N238T, S241I, L297Q, T328K
light: B1 light
notes: as for B1
B11: M103205H795-MY389/M103202L889-SK1 (antibody, human IgG1, kappa)
heavy: B1 heavy with N238T, S241L, L297Q, T328K
light: B1 light
notes: as for B1
B12: M103205H795-MY392/M103202L889-SK1 (antibody, human IgG1, kappa)
heavy: B1 heavy with N238T, L297Q, S300L, T328K
light: B1 light
notes: as for B1
B13: M103205H795-MY400/M103202L889-SK1 (antibody, human IgG1, kappa)
heavy: B1 heavy with N238T, L297Q, T328K, P333E
light: B1 light
notes: as for B1
B14: M103205H795-MY514/M103202L889-SK1 (antibody, human IgG1, kappa)
heavy: B1 heavy with N238T, S241V, L297Q, S300L, T328K
light: B1 light
notes: as for B1
B15: M103205H795-MY515/M103202L889-SK1 (antibody, human IgG1, kappa)
heavy: B1 heavy with N238T, S300L, T328K
light: B1 light
notes: as for B1
B16: M103205H795-MY516/M103202L889-SK1 (antibody, human IgG1, kappa)
heavy: B1 heavy with N238T, S241V, S300L, T328K
light: B1 light
notes: as for B1

Legend:
Experiment in all cases: SPR (BIACORE), antibody captured, FcgR analyte
[1] = target: T1, cynomolgus monkey FcγRIIa1 …
[2] = target: T2, cynomolgus monkey FcγRIIa2 …
[3] = target: T3, cynomolgus monkey FcγRIIb extracellular …
[4] = target: T4, cynomolgus monkey FcγRIIIaS …
[5] = target: T5, human FcγRIIaH extracellular domain …
[6] = target: T6, human FcγRIIaR extracellular domain …
[7] = target: T7, human FcγRIIb extracellular domain with …
[8] = target: T8, human FcγRIIIaV extracellular domain with C-terminal His-tag (human, UniProt P08637 17-208)
T8 construct: also called human FcgRIIIaV
T8 sequence (P08637 17-208 F176V): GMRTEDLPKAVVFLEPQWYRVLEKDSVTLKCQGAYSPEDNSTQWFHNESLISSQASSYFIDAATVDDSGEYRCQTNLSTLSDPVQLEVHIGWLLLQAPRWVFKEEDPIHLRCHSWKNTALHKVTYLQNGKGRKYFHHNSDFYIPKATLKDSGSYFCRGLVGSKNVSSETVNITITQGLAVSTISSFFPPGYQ

Binder	Kd [1]	Kd [2]	Kd [3]	Kd [4]	Kd [5]	Kd [6]	Kd [7]	Kd [8]
B1	630 nM	690 nM	190 nM	2200 nM	570 nM	880 nM	500 nM	14000 nM
B2	1400 nM	1600 nM	420 nM	2200 nM	140 nM	350 nM	1800 nM	5700 nM
B3	3400 nM	3000 nM	750 nM	760 nM	410 nM	530 nM	2800 nM	5600 nM
B4	4300 nM	4900 nM	1100 nM	2300 nM	310 nM	830 nM	3300 nM	17000 nM
B5	2500 nM	2900 nM	600 nM	340 nM	260 nM	420 nM	1800 nM	7000 nM
B6	5100 nM	8500 nM	1300 nM	2600 nM	370 nM	1000 nM	3900 nM	25000 nM
B7		1000 nM	290 nM	2800 nM	430 nM	850 nM	480 nM	10000 nM
B8	5200 nM	5600 nM	1500 nM	2500 nM	810 nM	1700 nM	4600 nM	24000 nM
B9	2300 nM	19000 nM	830 nM	2500 nM	340 nM	200 nM	1600 nM	4700 nM
B10	2200 nM	1700 nM	760 nM	1600 nM	330 nM	230 nM	1500 nM	4300 nM
B11	2000 nM	16000 nM	700 nM	1500 nM	270 nM	190 nM	1100 nM	3500 nM
B12	300 nM	2300 nM	700 nM	4000 nM	430 nM	410 nM	1700 nM	8300 nM
B13	18000 nM	2200 nM	630 nM	24000 nM	420 nM	740 nM	2500 nM	7800 nM
B14	260 nM	1600 nM	760 nM	4400 nM	350 nM	160 nM	690 nM	8800 nM
B15	140 nM	1600 nM	390 nM	3800 nM	220 nM	260 nM	1200 nM	9000 nM
B16	150 nM	13000 nM	450 nM	3000 nM	220 nM	85 nM	510 nM	6700 nM
